Source: article PMC3765742 (2013)

Biological target: M6P/IGF-IIR (Homo sapiens, UniProt P11717)
Experiment: SPR

Chain of M6P/IGF-IIR (P11717 41-2491): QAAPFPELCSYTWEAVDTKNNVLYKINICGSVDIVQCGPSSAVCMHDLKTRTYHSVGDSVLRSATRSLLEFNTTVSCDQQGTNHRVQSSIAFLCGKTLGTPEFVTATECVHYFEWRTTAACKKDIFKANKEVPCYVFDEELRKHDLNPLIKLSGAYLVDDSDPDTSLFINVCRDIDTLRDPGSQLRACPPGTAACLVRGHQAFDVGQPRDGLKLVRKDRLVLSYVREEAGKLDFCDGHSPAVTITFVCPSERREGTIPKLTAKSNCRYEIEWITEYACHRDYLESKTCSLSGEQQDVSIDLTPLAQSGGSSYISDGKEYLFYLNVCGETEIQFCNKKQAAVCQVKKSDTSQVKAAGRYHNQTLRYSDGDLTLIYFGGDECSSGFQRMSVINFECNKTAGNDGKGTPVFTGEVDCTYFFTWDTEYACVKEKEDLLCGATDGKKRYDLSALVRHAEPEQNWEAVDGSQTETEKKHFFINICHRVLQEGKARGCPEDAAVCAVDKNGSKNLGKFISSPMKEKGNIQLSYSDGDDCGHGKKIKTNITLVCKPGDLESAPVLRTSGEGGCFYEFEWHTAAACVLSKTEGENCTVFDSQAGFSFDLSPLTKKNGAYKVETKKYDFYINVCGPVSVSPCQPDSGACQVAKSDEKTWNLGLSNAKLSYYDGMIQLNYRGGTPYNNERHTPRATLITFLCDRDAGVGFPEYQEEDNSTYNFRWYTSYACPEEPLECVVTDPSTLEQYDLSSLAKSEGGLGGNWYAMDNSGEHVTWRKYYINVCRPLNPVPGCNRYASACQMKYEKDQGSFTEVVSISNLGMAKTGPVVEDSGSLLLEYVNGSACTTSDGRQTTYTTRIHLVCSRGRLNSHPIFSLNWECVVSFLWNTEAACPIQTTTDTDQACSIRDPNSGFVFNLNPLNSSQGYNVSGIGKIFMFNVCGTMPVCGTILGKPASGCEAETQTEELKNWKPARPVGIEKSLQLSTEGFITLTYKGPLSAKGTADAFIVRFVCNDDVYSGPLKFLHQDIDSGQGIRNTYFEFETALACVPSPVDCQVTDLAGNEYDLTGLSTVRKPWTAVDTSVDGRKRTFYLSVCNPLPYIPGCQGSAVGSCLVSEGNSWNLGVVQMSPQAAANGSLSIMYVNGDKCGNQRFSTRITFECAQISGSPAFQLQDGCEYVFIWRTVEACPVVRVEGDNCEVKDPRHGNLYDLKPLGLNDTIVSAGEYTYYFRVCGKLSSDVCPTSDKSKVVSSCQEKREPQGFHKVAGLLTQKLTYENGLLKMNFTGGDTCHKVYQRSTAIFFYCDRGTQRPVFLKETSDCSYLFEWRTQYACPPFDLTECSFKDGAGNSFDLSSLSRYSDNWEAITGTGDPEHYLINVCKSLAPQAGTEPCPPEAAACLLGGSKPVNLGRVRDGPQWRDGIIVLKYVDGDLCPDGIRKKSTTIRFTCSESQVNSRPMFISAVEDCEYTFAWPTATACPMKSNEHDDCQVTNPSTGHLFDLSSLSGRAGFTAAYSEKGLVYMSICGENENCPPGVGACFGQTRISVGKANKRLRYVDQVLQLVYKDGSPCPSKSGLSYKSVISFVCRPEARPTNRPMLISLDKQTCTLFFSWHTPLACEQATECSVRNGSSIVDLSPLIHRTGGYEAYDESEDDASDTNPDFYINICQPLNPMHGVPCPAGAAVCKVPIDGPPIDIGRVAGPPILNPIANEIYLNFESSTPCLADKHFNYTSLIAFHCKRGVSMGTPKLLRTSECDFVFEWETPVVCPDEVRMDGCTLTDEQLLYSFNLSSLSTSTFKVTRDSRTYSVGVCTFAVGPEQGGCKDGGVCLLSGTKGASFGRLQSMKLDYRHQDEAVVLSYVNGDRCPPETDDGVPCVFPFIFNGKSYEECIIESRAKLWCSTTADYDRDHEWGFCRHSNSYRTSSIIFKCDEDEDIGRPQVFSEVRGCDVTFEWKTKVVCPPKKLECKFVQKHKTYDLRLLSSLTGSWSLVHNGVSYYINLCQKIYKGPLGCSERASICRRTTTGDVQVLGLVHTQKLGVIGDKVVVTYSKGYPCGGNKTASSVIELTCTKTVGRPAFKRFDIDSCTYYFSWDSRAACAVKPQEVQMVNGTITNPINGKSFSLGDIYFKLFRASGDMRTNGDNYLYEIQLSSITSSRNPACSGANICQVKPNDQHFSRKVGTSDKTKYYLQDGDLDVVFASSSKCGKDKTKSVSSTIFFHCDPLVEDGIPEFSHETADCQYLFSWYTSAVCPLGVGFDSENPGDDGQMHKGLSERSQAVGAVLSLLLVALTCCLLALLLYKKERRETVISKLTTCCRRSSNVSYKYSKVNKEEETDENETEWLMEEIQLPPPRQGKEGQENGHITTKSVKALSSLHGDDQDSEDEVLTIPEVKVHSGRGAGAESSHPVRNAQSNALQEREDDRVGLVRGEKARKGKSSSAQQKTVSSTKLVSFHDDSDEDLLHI

Kd: 35.9 µM
B1: DPP-4 (protein)
chain: SRKTYTLTDYLKNTYRLKLYSLRWISDHEYLYKQENNILVFNAEYGNSSVFLENSTFDEFGHSINDYSISPDGQFILLEYNYVKQWRHSYTASYDIYDLNKRQLITEERIPNNTQWVTWSPVGHKLAYVWNNDIYVKIEPNLPSYRITWTGKEDIIYNGITDWVYEEEVFSAYSALWWSPNGTFLAYAQFNDTEVPLIEYSFYSDESLQYPKTVRVPYPKAGAVNPTVKFFVVNTDSLSSVTNATSIQITAPASMLIGDHYLCDVTWATQERISLQWLRRIQNYSVMDICDYDESSGRWNCLVARQHIEMSTTGWVGRFRPSEPHFTLDGNSFYKIISNEEGYRHICYFQIDKKDCTFITKGTWEVIGIEALTSDYLYYISNEYKGMPGGRNLYKIQLSDYTKVTCLSCELNPERCQYYSVSFSKEAKYYQLRCSGPGLPLYTLHSSVNDKGLRVLEDNSALDKMLQNVQMPSKKLDFIILNETKFWYQMILPPHFDKSKKYPLLLDVYAGPCSQKADTVFRLNWATYLASTENIIVASFDGRGSGYQGDKIMHAINRRLGTFEVEDQIEAARQFSKMGFVDNKRIAIWGWSYGGYVTSMVLGSGSGVFKCGIAVAPVSRWEYYDSVYTERYMGLPTPEDNLDHYRNSTVMSRAENFKQVEYLLIHGTADDNVHFQQSAQISKALVDVGVDFQAMWYTDEDHGIASSTAHQHIYTHMSHFIKQCFSLP
